Assay results from FireProtDB (doi:10.1111/j.1432-1033.1995.tb20713.x).

B1: Adenylate kinase, P07170 (parent)
chain: MSSSESIRMVLIGPPGAGKGTQAPNLQERFHAAHLATGDMLRSQIAKGTQLGLEAKKIMDQGGLVSDDIMVNMIKDELTNNPACKNGFILDGFPRTIPQAEKLDQMLKEQGTPLEKAIELKVDDELLVARITGRLIHPASGRSYHKIFNPPKEDMKDDVTGEALVQRSDDNADALKKRLAAYHAQTEPIVDFYKKTGIWAGVDASQPPATVWADILNKLGKD

Variants of: B1
Conditions: Saccharomyces cerevisiae (strain ATCC 204508 / S288c), Thermal, Fluorescence, reversible: yes, structure 2AKY, whole UniProt chain shown; for unfolding free energy / ddG of mutation (higher = less stable): 25 °C

Variant	unfolding free energy (pH 5, Acetic acid-NaOH 30 mM)	Tm (pH 5, Acetic acid-NaOH 30 mM)	unfolding enthalpy (van 't Hoff) (pH 5, Acetic acid-NaOH 30 mM)	ddG of mutation (higher = less stable) (pH 7.5, MOPS-NaOH 30 mM)	unfolding free energy (pH 7.5, MOPS-NaOH 30 mM)	Tm (pH 7.5, MOPS-NaOH 30 mM)	change of melting temperature, mutant - wild type (higher = more stable) (pH 7.5, MOPS-NaOH 30 mM)	unfolding enthalpy (van 't Hoff) (pH 7.5, MOPS-NaOH 30 mM)	unfolding free energy (pH 4.5, Acetic acid-NaOH 30 mM)	Tm (pH 4.5, Acetic acid-NaOH 30 mM)	unfolding enthalpy (van 't Hoff) (pH 4.5, Acetic acid-NaOH 30 mM)	unfolding free energy (pH 7.6, MOPS-NaOH 30 mM)	Tm (pH 7.6, MOPS-NaOH 30 mM)	unfolding enthalpy (van 't Hoff) (pH 7.6, MOPS-NaOH 30 mM)
T79H	2.87 kcal/mol	46.8 °C	68.1 kcal/mol	2.15 kcal/mol	1.67 kcal/mol	46.6 °C	-1.1 °C	50.2 kcal/mol	–	–	–	–	–	–
N171D	–	–	–	2.15 kcal/mol	1.67 kcal/mol	47.1 °C	-0.6 °C	47.8 kcal/mol	–	–	–	–	–	–
V10I	–	–	–	1.2 kcal/mol	2.63 kcal/mol	46.2 °C	-1.5 °C	64.5 kcal/mol	–	–	–	–	–	–
T112H	–	–	–	–	–	–	–	–	0.72 kcal/mol	40.2 °C	31.1 kcal/mol	1.2 kcal/mol	42.9 °C	41.8 kcal/mol
I215F	–	–	–	1.91 kcal/mol	1.91 kcal/mol	40 °C	-7.7 °C	59.8 kcal/mol	–	–	–	–	–	–
